# According to patent US10941182 (Amgen, dated 2021):
# Starred links: 1 amine or outer side, 2 acyl side, 3 side chain; linkers in the order of their positions; H or OH if unused. Non-standard residues stand in square brackets, D forms with d. Primed or numbered codes have the meaning given here. *: point of attachment. NPipG = 2-(piperidin-4-ylamino)acetic acid, O=C(CN(C1CCN([*:3])CC1)[*:1])[*:2]; AC4Abu = α-carboxy-4-aminobutyric acid, O=C(C(CCN[*:1])C(=O)[*:3])[*:2]; Oic = O=C(O)[C@@H]1C[C@@H]2CCCC[C@@H]2N1; Phe(4-Cl) = N[C@@H](Cc1ccc(Cl)cc1)C(=O)O; γGlu = O=C(O)[C@H](CCC(=O)[*:2])N[*:1]; HOOC(CH2)8CO = O=C(O)CCCCCCCCC(=O)*; d(β3hF) = N[C@@H](CC(=O)O)Cc1ccccc1; NMeR = CN[C@@H](CCCNC(=N)N)C(=O)O; Palmitoyl = CCCCCCCCCCCCCCCC(=O)*; hArg = N=C(N)NCCCC[C@H](N)C(=O)O; Tic = O=C(O)[C@@H]1Cc2ccccc2CN1; dTic = O=C(O)[C@H]1Cc2ccccc2CN1; β3hF = N[C@H](CC(=O)O)Cc1ccccc1; Cha = N[C@@H](CC1CCCCC1)C(=O)O; Aic = NC1(C(=O)O)Cc2ccccc2C1; β3hP = O=C(O)C[C@@H]1CCCN1; Pip = O=C(O)[C@@H]1CCCCN1; Nle = CCCC[C@H](N)C(=O)O; Orn = NCCC[C@H](N)C(=O)O; Pip′ = not defined here; AEEA = NCCOCCOCC(=O)O; Aib = CC(C)(N)C(=O)O; Inp = O=C(O)C1CCNCC1; Nip = nipecotic acid
# T1: rat APJ receptor (rat, UniProt Q9JHG3 1-377)
# T1 sequence (looked up): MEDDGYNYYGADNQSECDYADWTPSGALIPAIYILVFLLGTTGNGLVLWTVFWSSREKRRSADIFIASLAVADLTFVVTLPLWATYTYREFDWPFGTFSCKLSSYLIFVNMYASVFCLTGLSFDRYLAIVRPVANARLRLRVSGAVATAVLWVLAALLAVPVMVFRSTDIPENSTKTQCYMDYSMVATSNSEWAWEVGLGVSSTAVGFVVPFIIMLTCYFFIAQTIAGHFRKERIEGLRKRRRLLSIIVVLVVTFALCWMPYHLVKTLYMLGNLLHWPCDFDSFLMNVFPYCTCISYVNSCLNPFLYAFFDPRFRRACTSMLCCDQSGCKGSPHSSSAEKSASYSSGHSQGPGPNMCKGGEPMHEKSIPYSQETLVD
# T2: human APJ receptor (human, UniProt P35414 1-380)
# T2 sequence (looked up): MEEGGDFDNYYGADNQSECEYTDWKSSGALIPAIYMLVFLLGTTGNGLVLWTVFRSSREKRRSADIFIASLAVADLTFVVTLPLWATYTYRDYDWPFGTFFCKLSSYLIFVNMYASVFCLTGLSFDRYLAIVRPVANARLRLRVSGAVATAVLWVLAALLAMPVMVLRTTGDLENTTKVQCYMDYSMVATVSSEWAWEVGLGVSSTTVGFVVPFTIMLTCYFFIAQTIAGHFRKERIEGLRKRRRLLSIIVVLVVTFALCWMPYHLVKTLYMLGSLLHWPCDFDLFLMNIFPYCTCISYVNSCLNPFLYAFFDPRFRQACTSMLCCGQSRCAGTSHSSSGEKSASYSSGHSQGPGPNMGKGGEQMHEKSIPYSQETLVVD
# B1: SEQ ID NO: 599 (peptide)
# peptide: Palmitoyl-[AC4Abu][AEEA][AEEA][dQ]RP[NMeR][Cha]SHKG[Pip][Nle]P[dTic]-OH
# SMILES: CCCCCCCCCCCCCCCC(=O)NCCC(C(=O)O)C(=O)NCCOCCOCC(=O)NCCOCCOCC(=O)N[C@H](CCC(N)=O)C(=O)N[C@@H](CCCNC(=N)N)C(=O)N1CCC[C@H]1C(=O)N(C)[C@@H](CCCNC(=N)N)C(=O)N[C@@H](CC1CCCCC1)C(=O)N[C@@H](CO)C(=O)N[C@@H](Cc1c[nH]cn1)C(=O)N[C@@H](CCCCN)C(=O)NCC(=O)N1CCCC[C@H]1C(=O)N[C@@H](CCCC)C(=O)N1CCC[C@H]1C(=O)N1Cc2ccccc2C[C@@H]1C(=O)O
# B2: SEQ ID NO: 588 (peptide)
# peptide: Palmitoyl-[AC4Abu][AEEA][AEEA][dQ]RP[NMeR][Cha]SHKG[Pip][Nle][Nip][Phe(4-Cl)]-OH
# B3: SEQ ID NO: 647 (peptide)
# peptide: Palmitoyl-[AC4Abu][AEEA][AEEA][dQ]RP[NMeR][Cha]SHKG[Pip′][Nle]P[β3hF]-OH
# B4: SEQ ID NO: 474 (peptide)
# peptide: {HOOC(CH2)8CO}-[γGlu][AEEA][AEEA][hArg]Q[hArg]P[NMeR][Cha]SHKG[Oic][Nle]P[Phe(4-Cl)]-OH
# SMILES: CCCC[C@H](NC(=O)[C@@H]1C[C@@H]2CCCC[C@@H]2N1C(=O)CNC(=O)[C@H](CCCCN)NC(=O)[C@H](Cc1c[nH]cn1)NC(=O)[C@H](CO)NC(=O)[C@H](CC1CCCCC1)NC(=O)[C@H](CCCNC(=N)N)N(C)C(=O)[C@@H]1CCCN1C(=O)[C@H](CCCCNC(=N)N)NC(=O)[C@H](CCC(N)=O)NC(=O)[C@H](CCCCNC(=N)N)NC(=O)COCCOCCNC(=O)COCCOCCNC(=O)CC[C@H](NC(=O)CCCCCCCCC(=O)O)C(=O)O)C(=O)N1CCC[C@H]1C(=O)N[C@@H](Cc1ccc(Cl)cc1)C(=O)O
# B5: SEQ ID NO: 598 (peptide)
# peptide: Palmitoyl-[AC4Abu][AEEA][AEEA][dQ]RP[NMeR][Cha]SHKG[Pip][Nle]P[Tic]-OH
# SMILES: CCCCCCCCCCCCCCCC(=O)NCCC(C(=O)O)C(=O)NCCOCCOCC(=O)NCCOCCOCC(=O)N[C@H](CCC(N)=O)C(=O)N[C@@H](CCCNC(=N)N)C(=O)N1CCC[C@H]1C(=O)N(C)[C@@H](CCCNC(=N)N)C(=O)N[C@@H](CC1CCCCC1)C(=O)N[C@@H](CO)C(=O)N[C@@H](Cc1c[nH]cn1)C(=O)N[C@@H](CCCCN)C(=O)NCC(=O)N1CCCC[C@H]1C(=O)N[C@@H](CCCC)C(=O)N1CCC[C@H]1C(=O)N1Cc2ccccc2C[C@H]1C(=O)O
# B6: SEQ ID NO: 597 (peptide)
# peptide: Palmitoyl-[AC4Abu][AEEA][AEEA][dQ]RP[NMeR][Cha]SHKG[Pip][Nle][Aic]-OH
# SMILES: CCCCCCCCCCCCCCCC(=O)NCCC(C(=O)O)C(=O)NCCOCCOCC(=O)NCCOCCOCC(=O)N[C@H](CCC(N)=O)C(=O)N[C@@H](CCCNC(=N)N)C(=O)N1CCC[C@H]1C(=O)N(C)[C@@H](CCCNC(=N)N)C(=O)N[C@@H](CC1CCCCC1)C(=O)N[C@@H](CO)C(=O)N[C@@H](Cc1c[nH]cn1)C(=O)N[C@@H](CCCCN)C(=O)NCC(=O)N1CCCC[C@H]1C(=O)N[C@@H](CCCC)C(=O)NC1(C(=O)O)Cc2ccccc2C1
# B7: SEQ ID NO: 495 (peptide)
# peptide: XXXQRPRLSHKGPXPF
# modifications: {PDA}[AC4Abu][Aeea][Aeea]QRP[NMeArg]LSHKGP[Nle]P[4-Cl-F]{COOH}
# B8: SEQ ID NO: 590 (peptide)
# peptide: Palmitoyl-[AC4Abu][AEEA][AEEA][dQ]RP[NMeR][Cha]SHKG[Pip][Nle]P[Aic]-OH
# SMILES: CCCCCCCCCCCCCCCC(=O)NCCC(C(=O)O)C(=O)NCCOCCOCC(=O)NCCOCCOCC(=O)N[C@H](CCC(N)=O)C(=O)N[C@@H](CCCNC(=N)N)C(=O)N1CCC[C@H]1C(=O)N(C)[C@@H](CCCNC(=N)N)C(=O)N[C@@H](CC1CCCCC1)C(=O)N[C@@H](CO)C(=O)N[C@@H](Cc1c[nH]cn1)C(=O)N[C@@H](CCCCN)C(=O)NCC(=O)N1CCCC[C@H]1C(=O)N[C@@H](CCCC)C(=O)N1CCC[C@H]1C(=O)NC1(C(=O)O)Cc2ccccc2C1
# B9: SEQ ID NO: 589 (peptide)
# peptide: Palmitoyl-[AC4Abu][AEEA][AEEA]QRP[NMeR][Cha]SHKG[Pip][Nle][Inp][Phe(4-Cl)]-OH
# SMILES: CCCCCCCCCCCCCCCC(=O)NCCC(C(=O)O)C(=O)NCCOCCOCC(=O)NCCOCCOCC(=O)N[C@@H](CCC(N)=O)C(=O)N[C@@H](CCCNC(=N)N)C(=O)N1CCC[C@H]1C(=O)N(C)[C@@H](CCCNC(=N)N)C(=O)N[C@@H](CC1CCCCC1)C(=O)N[C@@H](CO)C(=O)N[C@@H](Cc1c[nH]cn1)C(=O)N[C@@H](CCCCN)C(=O)NCC(=O)N1CCCC[C@H]1C(=O)N[C@@H](CCCC)C(=O)N1CCC(C(=O)N[C@@H](Cc2ccc(Cl)cc2)C(=O)O)CC1
# B10: SEQ ID NO: 645 (peptide)
# peptide: Palmitoyl-[AC4Abu][AEEA][AEEA][dQ]RP[NPipG][Cha]SHKG[Pip′][Nle][Aib][Phe(4-Cl)]-OH
# B11: SEQ ID NO: 618 (peptide)
# peptide: Palmitoyl-[γGlu][AEEA][AEEA][dQ]RP[NMeR][Cha]SH[Orn]G[Oic][Nle][β3hP][d(β3hF)]-OH
# SMILES: CCCCCCCCCCCCCCCC(=O)N[C@@H](CCC(=O)NCCOCCOCC(=O)NCCOCCOCC(=O)N[C@H](CCC(N)=O)C(=O)N[C@@H](CCCNC(=N)N)C(=O)N1CCC[C@H]1C(=O)N(C)[C@@H](CCCNC(=N)N)C(=O)N[C@@H](CC1CCCCC1)C(=O)N[C@@H](CO)C(=O)N[C@@H](Cc1c[nH]cn1)C(=O)N[C@@H](CCCN)C(=O)NCC(=O)N1[C@H](C(=O)N[C@@H](CCCC)C(=O)N2CCC[C@H]2CC(=O)N[C@@H](CC(=O)O)Cc2ccccc2)C[C@@H]2CCCC[C@@H]21)C(=O)O
# B12: SEQ ID NO: 581 (peptide)
# peptide: Palmitoyl-[AC4Abu][AEEA][AEEA][dQ]RP[NMeR][Cha]SHKG[Pip][Aib][Phe(4-Cl)]-OH
# SMILES: CCCCCCCCCCCCCCCC(=O)NCCC(C(=O)O)C(=O)NCCOCCOCC(=O)NCCOCCOCC(=O)N[C@H](CCC(N)=O)C(=O)N[C@@H](CCCNC(=N)N)C(=O)N1CCC[C@H]1C(=O)N(C)[C@@H](CCCNC(=N)N)C(=O)N[C@@H](CC1CCCCC1)C(=O)N[C@@H](CO)C(=O)N[C@@H](Cc1c[nH]cn1)C(=O)N[C@@H](CCCCN)C(=O)NCC(=O)N1CCCC[C@H]1C(=O)NC(C)(C)C(=O)N[C@@H](Cc1ccc(Cl)cc1)C(=O)O
# B13: SEQ ID NO: 118 (peptide)
# peptide: XXXQRPRLSHKGPXPF
# modifications: {pIFBu}[AC4Abu][Aeea][Aeea]QRP[NMeArg]LSHKGP[Nle]P[4-Cl-F]{COOH}
# Molecular target: T1, rat APJ receptor
# Assay: cell-based or functional assay
row,EC50 Rat APJ Receptor,Binder
1,1.01 nM,B1
2,6.37 nM,B2
3,5.83 nM,B3
4,3.76 nM,B4
5,2.84 nM,B5
6,3.37 nM,B6
7,0.532 nM,B7
8,6.2 nM,B8
9,4.15 nM,B9
10,0.395 nM,B10
11,11.1 nM,B11
12,5.85 nM,B12
13,0.171 nM,B13

# Molecular target: T2, human APJ receptor
# Assay: cell-based or functional assay
row,EC50 Human APJ Receptor,Binder
1,0.44 nM,B1
2,1.52 nM,B2
3,1.58 nM,B3
4,1.14 nM,B4
5,0.463 nM,B5
6,0.885 nM,B6
7,0.0829 nM,B7
8,0.816 nM,B8
9,0.624 nM,B9
10,0.254 nM,B10
11,2.47 nM,B11
12,1.4 nM,B12
13,0.0475 nM,B13
